# In PMC9352680, “A comprehensive thermodynamic model for RNA binding by the Saccharomyces cerevisiae Pumilio protein PUF4”:
# T1: PUF4 RNA-binding domain (Saccharomyces cerevisiae, UniProt P25339 537-888)
# T1 sequence: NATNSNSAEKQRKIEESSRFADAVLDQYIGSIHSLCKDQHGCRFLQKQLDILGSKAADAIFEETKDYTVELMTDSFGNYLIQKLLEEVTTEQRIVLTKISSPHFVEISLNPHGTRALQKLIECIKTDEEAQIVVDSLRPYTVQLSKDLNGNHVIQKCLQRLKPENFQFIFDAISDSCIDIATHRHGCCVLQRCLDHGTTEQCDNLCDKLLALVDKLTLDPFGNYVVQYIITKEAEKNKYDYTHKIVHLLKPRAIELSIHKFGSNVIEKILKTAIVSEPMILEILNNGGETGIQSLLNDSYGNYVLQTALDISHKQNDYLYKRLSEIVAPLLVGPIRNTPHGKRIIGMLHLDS
# Target: T1, PUF4 RNA-binding domain
# Test: Mg; RNA-MaP; 20 mM Na-HEPES pH 7.4, 30 mM KOAc, 0.75 mM MgCl2, 0.1% Tween-20, 5% glycerol, 0.1 mg/mL BSA, 2 mM DTT; 25 C; 0.0125-409.6 nM protein
# Conditions: tags: N-His6-TEV cleaved; C-SNAP kept, Cy3B-labelled; label: tethered on chip by stalled RNA polymerase
row,Binder,Kd [nM]
1,UCUCUUUGUAUACAUUCUCUU (ssRNA) [Ic_S1_P4E.1_K4.1_C4.1_H4.1_A4.1_[T7C]_F4.1_[T8A]_[A9T]_T4.1],48.5
2,UCUCUUUGUAUUUCCAUCUCUU (ssRNA) [Ic_S1_P5E.1_K5.1_C5.1_H5.1_A5.1_[A7T]_F5.1_[T8C]_[T9C]_T5.1],363
3,UCUCUUUGUAUAUGACUCUCUU (ssRNA) [Ic_S1_P5E.1_K5.1_C5.1_H5.1_A5.1_[T6A]_[A7T]_F5.1_[T8G]_[T9A]_[A10C]_T5.1],16.1
4,UCUCUUUGUACUAUACUCUCUU (ssRNA) [Ic_S1_P5E.1_K5.1_C5.1_H5.1_A5.1_[T5C]_F5.1_[T9A]_[A10C]_T5.1],2.18
5,UCUCUUUGUAUUCCCUUCUCUU (ssRNA) [Ic_S1_P5E.1_K5.1_C5.1_H5.1_A5.1_[A7C]_F5.1_[T8C]_[T9C]_[A10T]_T5.1],653
6,UCUCUUUGUAUAUAGUUCUCUU (ssRNA) [Ic_S1_P5E.1_K5.1_C5.1_H5.1_A5.1_[T6A]_[A7T]_F5.1_[T8A]_[T9G]_[A10T]_T5.1],4.66
7,UCUCUUUGUAACACGGUCUCUU (ssRNA) [Ic_S1_P5E.1_K5.1_C5.1_H5.1_A5.1_[T5A]_[T6C]_F5.1_[T8C]_[T9G]_[A10G]_T5.1],2070
8,UCUCUUUGUACCAACCUCUCUU (ssRNA) [Ic_S1_P5E.1_K5.1_C5.1_H5.1_A5.1_[T5C]_[T6C]_F5.1_[T8A]_[T9C]_[A10C]_T5.1],556
9,UCUCUUUGUACGAUCAUCUCUU (ssRNA) [Ic_S1_P5E.1_K5.1_C5.1_H5.1_A5.1_[T5C]_[T6G]_F5.1_[T9C]_T5.1],88.9
10,UCUCUUUGUAUUUGUCUCUU (ssRNA) [Ic_S1_P3E.1_K3.1_C3.1_H3.1_A3.1_[A6T]_F3.1_[A8G]_T3.1],106
11,UCUCUUUGUACUGUCAUCUCUU (ssRNA) [Ic_S1_P5E.1_K5.1_C5.1_H5.1_A5.1_[T5C]_[A7G]_F5.1_[T9C]_T5.1],116
12,UCUCUUUGUAUCUUAGUCUCUU (ssRNA) [Ic_S1_P5E.1_K5.1_C5.1_H5.1_A5.1_[T6C]_[A7T]_F5.1_[T9A]_[A10G]_T5.1],3.71
13,UCUCUUUGUAUCAGUGUCUCUU (ssRNA) [Ic_S1_P5E.1_K5.1_C5.1_H5.1_A5.1_[T6C]_F5.1_[T8G]_[A10G]_T5.1],441
14,UCUCUUUGUAUACCGUUCUCUU (ssRNA) [Ic_S1_P5E.1_K5.1_C5.1_H5.1_A5.1_[T6A]_[A7C]_F5.1_[T8C]_[T9G]_[A10T]_T5.1],334
15,UCUCUUUGUACGGUAAUCUCUU (ssRNA) [Ic_S1_P5E.1_K5.1_C5.1_H5.1_A5.1_[T5C]_[T6G]_[A7G]_F5.1_[T9A]_T5.1],16.8
16,UCUCUUUGUACUAAAAUCUCUU (ssRNA) [Ic_S1_P5E.1_K5.1_C5.1_H5.1_A5.1_[T5C]_F5.1_[T8A]_[T9A]_T5.1],58.8
17,UCUCUUUGUACUCUCGUCUCUU (ssRNA) [Ic_S1_P5E.1_K5.1_C5.1_H5.1_A5.1_[T5C]_[A7C]_F5.1_[T9C]_[A10G]_T5.1],70.5
18,UCUCUUUGUAUAUGAUCUCUU (ssRNA) [Ic_S1_P4E.1_K4.1_C4.1_H4.1_A4.1_F4.1_[T8G]_T4.1],15.4
19,UCUCUUUGUACCGACCUCUCUU (ssRNA) [Ic_S1_P5E.1_K5.1_C5.1_H5.1_A5.1_[T5C]_[T6C]_[A7G]_F5.1_[T8A]_[T9C]_[A10C]_T5.1],> 2300
20,UCUCUUUGUACGCAUGUCUCUU (ssRNA) [Ic_S1_P5E.1_K5.1_C5.1_H5.1_A5.1_[T5C]_[T6G]_[A7C]_F5.1_[T8A]_[A10G]_T5.1],581
21,UCUCUUUGUAUAACCUCUCUU (ssRNA) [Ic_S1_P4E.1_K4.1_C4.1_H4.1_A4.1_[T7A]_F4.1_[T8C]_[A9C]_T4.1],62.8
22,UCUCUUUGUAUAUCGCUCUCUU (ssRNA) [Ic_S1_P5E.1_K5.1_C5.1_H5.1_A5.1_[T6A]_[A7T]_F5.1_[T8C]_[T9G]_[A10C]_T5.1],27.4

row,Binder,Kd [nM]
1,UCUCUUUGUAAUGCAUUCUCUU (ssRNA) [Ic_S1_P5E.1_K5.1_C5.1_H5.1_A5.1_[T5A]_[A7G]_F5.1_[T8C]_[T9A]_[A10T]_T5.1],910
2,UCUCUUUGUAUGUCACUCUCUU (ssRNA) [Ic_S1_P5E.1_K5.1_C5.1_H5.1_A5.1_[T6G]_[A7T]_F5.1_[T8C]_[T9A]_[A10C]_T5.1],132
3,UCUCUUUGUACAUAUUUCUCUU (ssRNA) [Ic_S1_P5E.1_K5.1_C5.1_H5.1_A5.1_[T5C]_[T6A]_[A7T]_F5.1_[T8A]_[A10T]_T5.1],5.5
4,UCUCUUUGUAAUCCCAUCUCUU (ssRNA) [Ic_S1_P5E.1_K5.1_C5.1_H5.1_A5.1_[T5A]_[A7C]_F5.1_[T8C]_[T9C]_T5.1],868
5,UCUCUUUGUAUCUGUCUCUU (ssRNA) [Ib_S1_P3E.1_K3.1_C3.1_H3.1_A3.1_[A6C]_F3.1_[A8G]_T3.1],81.8
6,UCUCUUUGUAUCGGUAUCUCUU (ssRNA) [Ic_S1_P5E.1_K5.1_C5.1_H5.1_A5.1_[T6C]_[A7G]_F5.1_[T8G]_T5.1],43.9
7,UCUCUUUGUAUAAAUUCUCUU (ssRNA) [Ic_S1_P4E.1_K4.1_C4.1_H4.1_A4.1_[T7A]_F4.1_[T8A]_[A9T]_T4.1],67.2
8,UCUCUUUGUAUAACUUCUCUU (ssRNA) [Ic_S1_P4E.1_K4.1_C4.1_H4.1_A4.1_[T7A]_F4.1_[T8C]_[A9T]_T4.1],44.2
9,UCUCUUUGUAGCAUUGUCUCUU (ssRNA) [Ic_S1_P5E.1_K5.1_C5.1_H5.1_A5.1_[T5G]_[T6C]_F5.1_[A10G]_T5.1],771
10,UCUCUUUGUAUAAGCCUCUCUU (ssRNA) [Ic_S1_P5E.1_K5.1_C5.1_H5.1_A5.1_[T6A]_F5.1_[T8G]_[T9C]_[A10C]_T5.1],794
11,UCUCUUUGUAAAUUUCUCUU (ssRNA) [Ic_S1_P3E.1_K3.1_C3.1_H3.1_A3.1_[T5A]_F3.1_[A8T]_T3.1],16.9
12,UCUCUUUGUAUCACAUUCUCUU (ssRNA) [Ic_S1_P5E.1_K5.1_C5.1_H5.1_A5.1_[T6C]_F5.1_[T8C]_[T9A]_[A10T]_T5.1],106
13,UCUCUUUGUACAGUCUUCUCUU (ssRNA) [Ic_S1_P5E.1_K5.1_C5.1_H5.1_A5.1_[T5C]_[T6A]_[A7G]_F5.1_[T9C]_[A10T]_T5.1],22.9
14,UCUCUUUGUAUUACAUUCUCUU (ssRNA) [Ic_S1_P5E.1_K5.1_C5.1_H5.1_A5.1_F5.1_[T8C]_[T9A]_[A10T]_T5.1],121
15,UCUCUUUGUAAAUCUCUCUU (ssRNA) [Ic_S1_P3E.1_K3.1_C3.1_H3.1_A3.1_[T5A]_F3.1_[A8C]_T3.1],343
16,UCUCUUUGUAAUCACGUCUCUU (ssRNA) [Ic_S1_P5E.1_K5.1_C5.1_H5.1_A5.1_[T5A]_[A7C]_F5.1_[T8A]_[T9C]_[A10G]_T5.1],1250
17,UCUCUUUGUAAUCACCUCUCUU (ssRNA) [Ic_S1_P5E.1_K5.1_C5.1_H5.1_A5.1_[T5A]_[A7C]_F5.1_[T8A]_[T9C]_[A10C]_T5.1],1200
18,UCUCUUUGUAUAUCGAUCUCUU (ssRNA) [Ic_S1_P5E.1_K5.1_C5.1_H5.1_A5.1_[T6A]_[A7T]_F5.1_[T8C]_[T9G]_T5.1],38.9
19,UCUCUUUGUAUAAACUCUCUU (ssRNA) [Ic_S1_P4E.1_K4.1_C4.1_H4.1_A4.1_[T7A]_F4.1_[T8A]_[A9C]_T4.1],70
20,UCUCUUUGUAUGUGUCUCUU (ssRNA) [Ic_S1_P3E.1_K3.1_C3.1_H3.1_A3.1_[A6G]_F3.1_[A8G]_T3.1],472
21,UCUCUUUGUAGCACUGUCUCUU (ssRNA) [Ic_S1_P5E.1_K5.1_C5.1_H5.1_A5.1_[T5G]_[T6C]_F5.1_[T8C]_[A10G]_T5.1],> 2300
22,UCUCUUUGUAAGUUCUUCUCUU (ssRNA) [Ic_S1_P5E.1_K5.1_C5.1_H5.1_A5.1_[T5A]_[T6G]_[A7T]_F5.1_[T9C]_[A10T]_T5.1],388

row,Binder,Kd [nM]
1,UCUCUUUGUAACUCCAUCUCUU (ssRNA) [Ic_S1_P5E.1_K5.1_C5.1_H5.1_A5.1_[T5A]_[T6C]_[A7T]_F5.1_[T8C]_[T9C]_T5.1],616
2,UCUCUUUGUAUAACGUCUCUU (ssRNA) [Ic_S1_P4E.1_K4.1_C4.1_H4.1_A4.1_[T7A]_F4.1_[T8C]_[A9G]_T4.1],42.3
3,UCUCUUUGUAGUUUCCUCUCUU (ssRNA) [Ic_S1_P5E.1_K5.1_C5.1_H5.1_A5.1_[T5G]_[A7T]_F5.1_[T9C]_[A10C]_T5.1],479
4,UCUCUUUGUACCCAACUCUCUU (ssRNA) [Ic_S1_P5E.1_K5.1_C5.1_H5.1_A5.1_[T5C]_[T6C]_[A7C]_F5.1_[T8A]_[T9A]_[A10C]_T5.1],836
5,UCUCUUUGUAAUACUCUCUCUU (ssRNA) [Ic_S1_P5E.1_K5.1_C5.1_H5.1_A5.1_[T5A]_F5.1_[T8C]_[A10C]_T5.1],642
6,UCUCUUUGUACAUUAAUCUCUU (ssRNA) [Ic_S1_P5E.1_K5.1_C5.1_H5.1_A5.1_[T5C]_[T6A]_[A7T]_F5.1_[T9A]_T5.1],0.904
7,UCUCUUUGUACCUAACUCUCUU (ssRNA) [Ic_S1_P5E.1_K5.1_C5.1_H5.1_A5.1_[T5C]_[T6C]_[A7T]_F5.1_[T8A]_[T9A]_[A10C]_T5.1],65.6
8,UCUCUUUGUACGUCUUUCUCUU (ssRNA) [Ic_S1_P5E.1_K5.1_C5.1_H5.1_A5.1_[T5C]_[T6G]_[A7T]_F5.1_[T8C]_[A10T]_T5.1],425
9,UCUCUUUGUAUCCCGGUCUCUU (ssRNA) [Ic_S1_P5E.1_K5.1_C5.1_H5.1_A5.1_[T6C]_[A7C]_F5.1_[T8C]_[T9G]_[A10G]_T5.1],> 2300
10,UCUCUUUGUACAUUUCUCUU (ssRNA) [Ic_S1_P3E.1_K3.1_C3.1_H3.1_A3.1_[T5C]_F3.1_[A8T]_T3.1],5.42
11,UCUCUUUGUACAGCCAUCUCUU (ssRNA) [Ic_S1_P5E.1_K5.1_C5.1_H5.1_A5.1_[T5C]_[T6A]_[A7G]_F5.1_[T8C]_[T9C]_T5.1],316
12,UCUCUUUGUACGUCCCUCUCUU (ssRNA) [Ic_S1_P5E.1_K5.1_C5.1_H5.1_A5.1_[T5C]_[T6G]_[A7T]_F5.1_[T8C]_[T9C]_[A10C]_T5.1],394
13,UCUCUUUGUACAUGUGUCUCUU (ssRNA) [Ic_S1_P5E.1_K5.1_C5.1_H5.1_A5.1_[T5C]_[T6A]_[A7T]_F5.1_[T8G]_[A10G]_T5.1],27.2
14,UCUCUUUGUAACCGCCUCUCUU (ssRNA) [Ic_S1_P5E.1_K5.1_C5.1_H5.1_A5.1_[T5A]_[T6C]_[A7C]_F5.1_[T8G]_[T9C]_[A10C]_T5.1],2070
15,UCUCUUUGUAUAUUAUCUCUU (ssRNA) [Ic_S1_P4E.1_K4.1_C4.1_H4.1_A4.1_F4.1_T4.1],0.576
16,UCUCUUUGUAACCCCAUCUCUU (ssRNA) [Ic_S1_P5E.1_K5.1_C5.1_H5.1_A5.1_[T5A]_[T6C]_[A7C]_F5.1_[T8C]_[T9C]_T5.1],1280
17,UCUCUUUGUAAAUAAUUCUCUU (ssRNA) [Ic_S1_P5E.1_K5.1_C5.1_H5.1_A5.1_[T5A]_[T6A]_[A7T]_F5.1_[T8A]_[T9A]_[A10T]_T5.1],30.5
18,UCUCUUUGUAUACACUCUCUU (ssRNA) [Ic_S1_P4E.1_K4.1_C4.1_H4.1_A4.1_[T7C]_F4.1_[T8A]_[A9C]_T4.1],118
19,UCUCUUUGUACCUUUUUCUCUU (ssRNA) [Ic_S1_P5E.1_K5.1_C5.1_H5.1_A5.1_[T5C]_[T6C]_[A7T]_F5.1_[A10T]_T5.1],26.7
20,UCUCUUUGUACUCAGCUCUCUU (ssRNA) [Ic_S1_P5E.1_K5.1_C5.1_H5.1_A5.1_[T5C]_[A7C]_F5.1_[T8A]_[T9G]_[A10C]_T5.1],945
